Numbering of substitutions follows the chain as printed. Where “and” joins values, the source holds several entries; their conditions need not be identical. Equal values may be shown once. Blank lines part the entries; values can stand above or below the binder they belong to.
What was measured:
Settings in all cases: both partners purified
[1] = molecular target: T1, ADO-F256A, biotinylated (pQE80L-Navi-ADO) (human, UniProt Q96SZ5 1-270, F256A, biotin on the Avi tag); assay: SPR; multi-cycle, equilibrium steady state affinity 1:1 binding model; biotinylated ADO or variant immobilised on a Biotin CAP chip (~2500-3000 RU), peptide injected; 4 °C; 20 mM HEPES pH 7.5, 500 mM NaCl, 10 mM DTT, 0.1% (v/v) tween-20; 50 μL/minute
T1 construct: Tag as in Dm1; source: E. coli Rosetta2(DE3), purified (Ni-NTA, SEC); not shown: Avi tag, N-terminal, kept; His6, N-terminal, kept
T1 sequence (looked up): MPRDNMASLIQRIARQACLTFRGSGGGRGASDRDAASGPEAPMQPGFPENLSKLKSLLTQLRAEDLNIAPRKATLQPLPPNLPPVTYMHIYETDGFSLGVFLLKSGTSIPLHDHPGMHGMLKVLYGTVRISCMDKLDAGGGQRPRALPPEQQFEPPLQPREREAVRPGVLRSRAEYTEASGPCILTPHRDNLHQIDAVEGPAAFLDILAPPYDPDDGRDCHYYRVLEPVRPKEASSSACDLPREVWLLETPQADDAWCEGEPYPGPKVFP
Summary of the method: (§1)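 Biotinylated full-length human ADO (wild type or engineered forms) was made in E. coli with a His tag, then purified by nickel affinity and gel filtration. It was captured on a Biotin CAP chip at about 2500–3000 RU in a Biacore T200, and peptides were flowed over it. The run was at 4 °C in HEPES pH 7.5 buffer with 500 mM NaCl, DTT and tween-20, at 50 μL/minute. Kd came from a 1:1 steady-state fit of multi-cycle equilibrium responses.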

[2] = molecular target: T2, ADO-D206E, biotinylated (pQE80L-Navi-ADO) (human, UniProt Q96SZ5 1-270, D206E, biotin on the Avi tag); assay: as above
T2 construct: Tag as in Dm1; source: E. coli Rosetta2(DE3), purified (Ni-NTA, SEC); not shown: Avi tag, N-terminal, kept; His6, N-terminal, kept
T2 sequence (looked up): T1 sequence (looked up) with D206E, A256F
Summary of the method: as §1

[3] = molecular target: T3, ADO-F101A, N-terminally His-tagged and biotinylated (human, UniProt Q96SZ5 1-270, F101A, biotin (biotinylated during expression)); assay: SPR; biotinylated ADO or ADO mutant immobilised on a Biotin CAP chip (~2500-3000 RU), substrate peptide injected; Biacore T200, 4 °C; 20 mM HEPES pH 7.5, 500 mM NaCl, 10 mM DTT, 0.1% tween-20; 50 µL/minute; multi-cycle or single-cycle mode not given; each cell is one of three independent measurements
T3 construct: 2-aminoethanethiol dioxygenase (ADO), human, UniProt Q96SZ5, full length, site-directed mutant; source: E. coli Rosetta2(DE3), purified (Ni-NTA, SEC); not shown: biotinylation tag (from the vector pQE80L-Navi), N-terminal, kept
T3 sequence (looked up): T1 sequence (looked up) with F101A, A256F

[4] = molecular target: T4, ADO-D206E, N-terminally His-tagged and biotinylated (human, UniProt Q96SZ5 1-270, D206E, biotin (biotinylated during expression)); assay: as above
T4 construct: 2-aminoethanethiol dioxygenase (ADO), human, UniProt Q96SZ5, full length, site-directed mutant; source: E. coli Rosetta2(DE3), purified (Ni-NTA, SEC); not shown: biotinylation tag (from the vector pQE80L-Navi), N-terminal, kept
T4 sequence (looked up): T1 sequence (looked up) with D206E, A256F

[5] = molecular target: T5, ADO-C220A, N-terminally His-tagged and biotinylated (human, UniProt Q96SZ5 1-270, C220A, biotin (biotinylated during expression)); assay: as above
T5 construct: 2-aminoethanethiol dioxygenase (ADO), human, UniProt Q96SZ5, full length, site-directed mutant; source: E. coli Rosetta2(DE3), purified (Ni-NTA, SEC); not shown: biotinylation tag (from the vector pQE80L-Navi), N-terminal, kept
T5 sequence (looked up): T1 sequence (looked up) with C220A, A256F

[6] = molecular target: T6, ADO-F256A, N-terminally His-tagged and biotinylated (human, UniProt Q96SZ5 1-270, F256A, biotin (biotinylated during expression)); assay: as above
T6 construct: 2-aminoethanethiol dioxygenase (ADO), human, UniProt Q96SZ5, full length, site-directed mutant; source: E. coli Rosetta2(DE3), purified (Ni-NTA, SEC); not shown: biotinylation tag (from the vector pQE80L-Navi), N-terminal, kept
T6 sequence (looked up): T1 sequence (looked up)

- Kd [1]: 870 nM
- Kd [2]: 1300 nM
B1: IL32_(2-15), synthetic peptide corresponding to the methionine excised N-terminus of IL32, residues 2-15 (peptide, UniProt P24001 2-15, looked up)
peptide: CFPKVLSDDMKKLK
notes: Interleukin 32 (IL32), residues 2-15, N-terminal Cys; also called IL32 peptide; source: synthetic peptide

- Kd [3]: 42700 nM and 46300 nM and 52300 nM
- Kd [4]: 1190 nM and 997 nM and 1060 nM
- Kd [5]: 960 nM and 1120 nM and 1310 nM
- Kd [6]: 717 nM and 753 nM and 714 nM
B2: RGS5(2-15), synthetic peptide corresponding to the methionine excised N-terminus of RGS5, residues 2 to 15 (peptide, UniProt O15539 2-15, looked up)
peptide: CKGLAALPHSCLER
notes: regulator of G-protein signalling 5 (RGS5), residues 2 to 15 (N-terminal Cys exposed); UniProt O15539 is printed for the full-length human protein; also called 14-mer RGS5; source: synthetic peptide
